Reference: publication PMC4259407, “HAX1 regulates E3 ubiquitin ligase activity of cIAPs by promoting their dimerization” (Oncotarget, 2014)

Biological target: T1, full-length His-tagged cIAP2 (UniProt Q13489 1-604)
T1 construct: also called His-cIAP2; source: E. coli BL21 (DE3), purified (Ni-NTA)
Assay: pull-down; in vitro dimerization assay: purified His-cIAP2 and GST-BUCR with HAX1 or HAX1N (0, 0.5 and 5 μg), preincubated at 4°C for 30 min; Ni-NTA agarose, 4 h at 4°C; 20 mM HEPES, 100 mM NaCl, 5% glycerol, 0.1 mg BSA, 0.1% Triton X-100; blots with anti-His and anti-GST; more complex with HAX1, no effect of HAX1N
Conditions: both partners purified

B1: GST-tagged cIAP2 fragment (GST-BUCR) (domain or fragment, UniProt Q13489 251-604, looked up)
chain: SMQTHAARFKTFFNWPSSVLVNPEQLASAGFYYVGNSDDVKCFCCDGGLRCWESGDDPWVQHAKWFPRCEYLIRIKGQEFIRQVQASYPHLLEQLLSTSDSPGDENAESSIIHFEPGEDHSEDAIMMNTPVINAAVEMGFSRSLVKQTVQRKILATGENYRLVNDLVLDLLNAEDEIREEERERATEEKESNDLLLIRKNRMALFQHLTCVIPILDSLLTAGIINEQEHDVIKQKTQTSLQARELIDTILVKGNIAATVFRNSLQEAEAVLYEHLFVQQDIKYIPTEDVSDLPVEEQLRRLQEERTCKVCMDKEVSIVFIPCGHLVVCKDCAPSLRKCPICRSTIKGTVRTFLS
notes: cIAP2 residues 251-604 (printed as BUCT in the methods, BUCR in the results), cloned into the GST-tagged vector pGEX-6p-1; also called BUCT (a.a 251–604); source: E. coli BL21 (DE3), purified (glutathione-Sepharose 4B)
B1: binds.
